The source of these data is patent publication US6649409.

Values joined by “and” are separate entries in the source; they are usually repeats but may differ in a detail not shown here. Equal values may be shown once.

Experiment [1] concerns the target HIV-1 BX08 envelope glycoprotein gp160 expressed from the synthetic gene syn.gp160BX08 (HIV-1 BX08). As to the kind of experiment: flow cytometry (FACS) on transfected 293 cells, PE-labelled rat anti-mouse IgG1 as secondary. A general note: In flow cytometry, cells or beads pass a laser one at a time.
The target in experiment [2] is HIV-1 BX08 envelope glycoprotein gp160 expressed from the wild type gene wt.gp160BX08 (HIV-1 BX08). The description is as above.
Experiment [3] has as its target HIV-1 BX08 envelope glycoprotein gp160 expressed from the synthetic gene syn.gp160BX08 (HIV-1 BX08). As to the kind of experiment: flow cytometry (FACS) on transfected 293 cells, mean of duplicates.
The target of experiment [4] is HIV-1 BX08 envelope glycoprotein gp160 expressed from the wild type gene wt.gp160BX08 (HIV-1 BX08). The experiment is described as above.

As for “mouse monoclonal IgG antibody to HIV gp120 (NEA-9301, NEN Life Science Products Inc., Boston)”, in experiment [1], the % of cells stained (C: Primary Ab and secondary Ab added) was 36.9% and 58.4%; the % of cells stained, C-A (less control without primary antibody) was 34.3% and 55.6%; the % of cells stained, C-B (less autofluorescence control) was 34.1% and 56.3%. Further, in experiment [2], the % of cells stained (C: Primary Ab and secondary Ab added) is 14.4% and 7.51%; the % of cells stained, C-A (less control without primary antibody) is 11.4% and 5.56%; the % of cells stained, C-B (less autofluorescence control) is 13% and 5.99%. Besides, the mean % of cells stained in experiment [3] worked out at 48%. Besides, the mean % of cells stained in experiment [4] worked out at 11%.
